This passage reports Kd, koff and kon results from paper PMC10382551, “Affinity-matured homotypic interactions induce spectrum of PfCSP structures that influence protection from malaria infection” (Nature Communications, 2023).

Where a chain is given by its changes, count along the chain named. Ends that are not written are not given here.

B1: 239 Fab (Fab, V domains shown)
VH: QVQLVESGGGVVQPGRSLRLSCAASRLTFRNFGMHWVRQTPGKGLEWVAVIWHDGSNKFYADSVEGRFTISRDNSKNTLYLQMNSLRDEDTAIYYCAKDWGGASDRVFDYWGRGTLVIVSS
VL: DIQMTQSPSTLSASVGDRVTITCRASQSVSTSLAWYQQKPGKAPNLLIYQASTLYRGVPSRFSGSGSGTEFTLTIGSLQPDDFATYYCQHYNSYSRITFGQGTRLEIK
notes: source: ExpiCHO cells, purified (mAb Select PrismA or Capture Select, SEC)
B2: 334 Fab (Fab, V domains shown)
VH: QVQLVESGGGVVQPGRSLTLSCAASGFTFSNYGMHWVRQTPGKGLAWVAIIWYDGSKTYYEDSVKGRFTISRDNSKNTLYLQMNSLRVDDTAVYYCARVRHSSSRHGSAFDLWGQGTLVTVSS
VL: VIQMTQSPSTLSASVGDRVTITCRASQSVSTWLAWYQQKPGQGPKLLIYEASSLESGVPSRFSGSGSGTEFTLTISSLQPDDFATYYCQQYNSYSFWTFGQGTKVEIK
notes: as for B1
B3: 311 Fab (Fab, V domains shown)
VH: QVQLVESGGGVVPPGRSLRLSCATSGFTFSNYGMHWVRQAPGKGLEWVAIIWYDGSRNFYAASVEGRFTISRDNSKNTLYLQMNSLRVEDTAVYYCARAAYYDTSGYGDYWGQGTLVTVSS
VL: QSVLTQPPSVSGAPGQTVTISCTGGSSNIGAGYDVHWYQQLPGTAPKLLIYGNINRPSGVPDRFSGSKSGTSASLAITGLQAEDEADYYCQSYDRRLSGSWVFGGGTKLTVL
notes: as for B1
B4: 227 Fab (Fab, V domains shown)
VH: QVQLVQSGGGVVQPGRSLRLSCVTSGFTFPAFGMHWVRQAPGKGLEWVAVIWYDGSKKYYADSVRGRFTISRDNSRNTLYLQMHSLRAEDTAVYYCARVKNYESSGYSQCLDYWGQGVLVTVAS
VL: QSVLTQPPSVSGAPGQRVTISCTGSSSNIGAGYDVHWYQQLPGTAPKLLIYGNGNRPSGVPDRFSGSKSGTSVSLAITGLQAEDEADYYCQSYDSSLSAFVFGTGTKVTVL
notes: as for B1
B5: 337 Fab (Fab, V domains shown)
VH: QVQLVESGGGVVQPGRSLRLSCAASGFSFSTYGMHWVRQAPGKGLEWVALIWHDGSKKFYSESVRGRFTISRDNSMDTLYLQMSSLRAEDTAVYYCARDGADYFDSTGGAFDIWGQGTMVIVSS
VL: EIVMTQSPATLSVSPGERATLSCRASQSVSSNLAWYQQKPGQAPRLLIYGASTRATGIPARFSGSGSGTEFTLTISSLQSEDFATYYCQQYKTWWTFGQGTKVEIK
notes: as for B1
B6: 356 Fab (Fab, V domains shown)
VH: QVQLVESGGGVVQPGRSLRLSCAASGFTFRNFGMHWVRQTPGKGLEWVAVIWHDGSNKFYADSVEGRFTISRDNSKNMIYLQMNSLRVEDTAIYYCARDSLFYDHDNSGYYGYWGQGTLVTVSS
VL: QIVMTQSPATVSVSPGERATLSCRASRSVTSKLAWYQQKPGQAPRLLIYGASTRATGIPARFSGSGSGTEFTLTISSLQSEDFAVYFCQQYNNGFTFGPGTKVDFK
notes: as for B1
B7: 356R Fab (Fab, V domains shown)
VH: B6 VH with R30S, N31S, F32Y, E65K
VL: B6 VL with Q1E, R27Q
notes: also called Fab356R; germline-reverted 356; source: ExpiCHO cells, purified (mAb Select PrismA or Capture Select, SEC)
B8: 239 Fab (Fab, V domains shown)
VH: B1 VH
VL: B1 VL
notes: also called mAb 239; source: ExpiCHO cells, purified (mAb Select PrismA or Capture Select, SEC)
B9: 239R Fab (Fab, V domains shown)
VH: B1 VH with R30S, N31S, F32Y, E65K
VL: B1 VL with R56T
notes: also called germline-reverted 239; source: ExpiCHO cells, purified (mAb Select PrismA or Capture Select, SEC)
B10: 334 Fab (Fab, V domains shown)
VH: B2 VH
VL: B2 VL
notes: also called mAb 334; source: ExpiCHO cells, purified (mAb Select PrismA or Capture Select, SEC)
B11: 311 Fab (Fab, V domains shown)
VH: B3 VH
VL: B3 VL
notes: also called mAb 311; source: ExpiCHO cells, purified (mAb Select PrismA or Capture Select, SEC)
B12: 311R Fab (Fab, V domains shown)
VH: B3 VH with N31S, R57N, N58K, E65K
VL: B3 VL with R95S, R96S
notes: also called germline-reverted 311; source: ExpiCHO cells, purified (mAb Select PrismA or Capture Select, SEC)
B13: 364 Fab (Fab, V domains shown)
VH: QVQLVESGGGVVQPGGSLRLSCAASGFTFSGYGMHWVRQVPGKGLEWVAIIWFDGSQKYYADSVQGRFTISRDNSKKTLFLRMNSLRAEDTAVYYCAKVHDDEPTQDYWGQGTLVTVSS
VL: DIQMTQSPSTLSASVGDRVTITCRASQGISTSLAWYQQKPGKAPKLLIYKASSLESGVPSRFSGSGSGTEFTLTITSLQPEDFATYYCQQYKRYWTFGQGTKVEIK
notes: also called mAb 364; source: ExpiCHO cells, purified (mAb Select PrismA or Capture Select, SEC)
B14: 227 Fab (Fab, V domains shown)
VH: B4 VH
VL: B4 VL
notes: also called mAb 227; source: ExpiCHO cells, purified (mAb Select PrismA or Capture Select, SEC)
B15: 337 Fab (Fab, V domains shown)
VH: B5 VH
VL: B5 VL
notes: also called mAb 337; source: ExpiCHO cells, purified (mAb Select PrismA or Capture Select, SEC)
B16: 356 Fab (Fab, V domains shown)
VH: B6 VH
VL: B6 VL
notes: also called mAb 356; source: ExpiCHO cells, purified (mAb Select PrismA or Capture Select, SEC)
B17: 356R Fab (Fab, V domains shown)
VH: B6 VH with R30S, N31S, F32Y, E65K
VL: B6 VL with Q1E, R27Q
notes: also called germline-reverted 356; source: ExpiCHO cells, purified (mAb Select PrismA or Capture Select, SEC)

Usually Kd stands for the concentration at which binding is half-saturated. Read a low Kd as higher affinity. The koff is a measure of how fast the partners let go of each other. One may read the kon as a measure of how fast the partners come together. Higher therefore signals fast association.

In one assay the target is T1, NPNA4 peptide (Plasmodium falciparum (isolate 3D7)., not fully specified).
T1 construct: source: synthetic peptide (InnoPep Inc, purity >=97%)
T1 chain: NPNANPNANPNANPNA
The assay is described as follows: BLI. The conditions noted are these: both partners purified.
On to B1, for which the Kd came out at 44.7 nM.

Regarding B2, the Kd worked out at 49.9 nM.

B3: binding was characterised by a dissociation constant (Kd) of 212 nM.

With B4, binding was put at a Kd of 46.3 nM.

Molecule B5 returned a Kd of 36.9 nM.

Take B6: binding was characterised by a dissociation constant (Kd) of 123 nM.

For the molecule B7, the Kd came out at 65 nM.

In the next assay the target is T2, NPNA8 peptide (Plasmodium falciparum (isolate 3D7)., not fully specified).
T2 construct: source: synthetic peptide (InnoPep Inc, purity >=97%)
T2 chain: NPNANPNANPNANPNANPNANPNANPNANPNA
Put plainly: BLI. The note with it: both partners purified.
B1 came in with a Kd of 7.22 nM.

B2 came in with a Kd of 22.4 nM.

The molecule B3 returned a Kd of 6.11 nM.

Molecule B4 displayed a dissociation constant Kd of 23.7 nM.

In turn, B5 registered a Kd of 39.4 nM.

B6: binding was put at a Kd of 6.35 nM.

For B7, the Kd worked out at 124 nM.

A further assay concerns the target T3, NPNA4 peptide (Plasmodium falciparum (isolate 3D7)., not fully specified).
T3 construct: source: synthetic peptide (InnoPep Inc)
T3 chain: NPNANPNANPNANPNA
The assay is described as follows: BLI. The conditions noted are these: both partners purified.
B8 displayed a Kd of 44.7 nM, a koff of 0.0063 s⁻¹ and a kon of 110000 M⁻¹ s⁻¹.

For B9, binding was characterised by a dissociation constant (Kd) of 165 nM, the koff came to 0.033 s⁻¹ and the kon is 410000 M⁻¹ s⁻¹.

Consider B10, for which binding was characterised by a dissociation constant (Kd) of 49.9 nM, the koff is 0.0021 s⁻¹ and the kon worked out at 53000 M⁻¹ s⁻¹.

For B11, binding was characterised by a dissociation constant (Kd) of 212 nM, the koff came to 0.0041 s⁻¹ and the kon stood at 27000 M⁻¹ s⁻¹.

Regarding B12, the Kd turned out to be 67.4 nM, the off-rate constant (koff) is 0.0088 s⁻¹ and the kon was 71000 M⁻¹ s⁻¹.

B13 registered a Kd of 260 nM, a koff of 0.0027 s⁻¹ and a kon of 43000 M⁻¹ s⁻¹.

The molecule B14 gave a Kd of 37.5 nM, a koff of 0.0058 s⁻¹ and a kon of 130000 M⁻¹ s⁻¹.

B15: binding was put at a Kd of 36.9 nM, the dissociation rate constant (koff) came to 0.007 s⁻¹ and the on-rate constant (kon) amounted to 130000 M⁻¹ s⁻¹.

As to B16, the Kd came to 123 nM, the off-rate (koff) amounted to 0.013 s⁻¹ and the kon stood at 80000 M⁻¹ s⁻¹.

On to B17, for which the Kd stood at 79 nM, the koff came out at 0.03 s⁻¹ and the kon was found to be 560000 M⁻¹ s⁻¹.

A further assay addresses T4, NPNA8 peptide (Plasmodium falciparum (isolate 3D7)., not fully specified).
T4 construct: source: synthetic peptide (InnoPep Inc)
T4 chain: T2 chain
The assay is described as follows: BLI. The conditions noted are these: both partners purified.
Consider B8, for which the Kd turned out to be 7.2 nM, the koff came to 0.00056 s⁻¹ and the kon came out at 83000 M⁻¹ s⁻¹.

With B9, the Kd came to 205 nM, the koff stood at 0.022 s⁻¹ and the kon turned out to be 120000 M⁻¹ s⁻¹.

In the case of B10, binding was characterised by a dissociation constant (Kd) of 22.4 nM, the koff stood at 0.0013 s⁻¹ and the kon was found to be 52000 M⁻¹ s⁻¹.

With B11, binding was characterised by a dissociation constant (Kd) of 6.1 nM, the koff was 0.00025 s⁻¹ and the kon stood at 66000 M⁻¹ s⁻¹.

Take B12: the Kd amounted to 211 nM, the koff was determined as 0.0051 s⁻¹ and the kon stood at 71000 M⁻¹ s⁻¹.

Consider B13, for which binding was characterised by a dissociation constant (Kd) of 4.9 nM, the koff stood at 0.00027 s⁻¹ and the kon is 65000 M⁻¹ s⁻¹.

In turn, B14 showed a Kd of 80.3 nM, a koff of 0.0035 s⁻¹ and a kon of 40000 M⁻¹ s⁻¹.

Molecule B15 gave a Kd of 39.4 nM, a koff of 0.0035 s⁻¹ and a kon of 66000 M⁻¹ s⁻¹.

The molecule B16 had a Kd of 6.4 nM, a koff of 0.00056 s⁻¹ and a kon of 87000 M⁻¹ s⁻¹.

The molecule B17 returned a Kd of 124 nM, a koff of 0.017 s⁻¹ and a kon of 79000 M⁻¹ s⁻¹.
